The target of assay [1] is Rab5 (UniProt P51148).
The target in assay [2] is Rab1/Ypt1 (UniProt P01123).
UniProt P01123, sequence (P01123 whole entry): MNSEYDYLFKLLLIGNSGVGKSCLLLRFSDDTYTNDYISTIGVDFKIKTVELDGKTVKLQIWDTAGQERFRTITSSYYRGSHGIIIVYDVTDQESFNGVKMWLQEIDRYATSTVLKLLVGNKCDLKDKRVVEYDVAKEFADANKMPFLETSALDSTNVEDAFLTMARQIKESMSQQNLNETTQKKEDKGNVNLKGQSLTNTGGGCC

UniProt P51148, sequence (P51148 whole entry): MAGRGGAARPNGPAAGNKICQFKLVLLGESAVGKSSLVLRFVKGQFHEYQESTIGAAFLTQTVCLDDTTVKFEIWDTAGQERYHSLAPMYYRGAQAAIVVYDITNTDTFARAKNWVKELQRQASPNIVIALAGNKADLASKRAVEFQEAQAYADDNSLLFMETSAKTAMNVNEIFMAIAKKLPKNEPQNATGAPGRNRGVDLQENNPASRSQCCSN

On to Rabex5 (enzyme), for which, in assay [1], the catalytic efficiency (kcat/Km) of Rabex-mediated nucleotide exchange (release of Mant-GDP from Rab5) worked out at 25000 M⁻¹ s⁻¹.

“TRAPP Bet3 E192A/D193A mutant (from UniProt P36149 1-193) (complex)”: the GEF activity towards Rab1 (release of Mant-GDP), reduction against wild type TRAPP in assay [2] stood at 4 fold.

In turn, “TRAPPI-complex (from UniProt P36149 1-193)” returned a catalytic efficiency (kcat/Km) of TRAPP-stimulated GDP-release from Rab1/Ypt1 (release of Mant-GDP) in assay [2] of 130000 M⁻¹ s⁻¹.
